{
  "source": "paper PMC4338372",
  "about": "(FEBS Open Bio, 2015)",
  "binders": {"B1": {"name": "GST-fused SH3 domain of Hck (GST-SH3Hck) (domain or fragment)", "chain": "not shown"}},
  "key": {"[1]": {"target": "6His-tagged ELMO1 C-terminal domain with the polyproline motif (ELMO_(532–727)) (mouse, UniProt Q8BPU7 532-727)", "experiment": "ELISA"}, "[2]": {"target": "^15N-labeled SH3 domain of Hck (SH3Hck), GST tag cleaved (UniProt P08631 77-141, uniformly ^15N labeled)", "sequence (P08631 77-141)": "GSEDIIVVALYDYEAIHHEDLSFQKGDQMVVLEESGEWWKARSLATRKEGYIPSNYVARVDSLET", "experiment": "NMR titration"}},
  "data": [
    {"binder": "B1", "values": [
      {"measurement": "Kd", "setting": "[1]", "result": "~10", "unit": "µM"}
    ]},
    {"binder": "DLENIQIPDAPPPIPKEPSNYDFVYDCN", "note": "[ELMO_(700–727) peptide (28 C-terminal amino-acids of ELMO1)]", "values": [
      {"measurement": "Kd", "setting": "[2]", "result": "1600 ± 300", "unit": "µM"}
    ]}
  ]
}
